Experimental data published in a protein production outcome set (Wang et al. 2014).

Assay: label from the status in PepcDB records

Row | Sequence | protein production
1 | MIRVASLIKAMSDTQLQIAQGASPLTGLPGNSAIEQEIKRRLNSGNAFGMIYADLNQFKAFNDTYGFQYGDSIIKLLGKILMQDSLKADDLAFVGHVGGDDFIILTTQNVTKTLGETILLSFQEQLSAMQGAQDLSLALAGLIIYPHTAWTPATLSERIAAVKREAKKAHCNYFLLRELEHHHHHH | failed
2 | MHPNIATLLSANLGESRTRHLLSLVSVPDGLPSDAEGRATRAEIAQALNMVLFAGILDRVPTGRAYTDDVAATGGKVVFDHGALRTVKWRDNGALPEGEAAFTRILRPLGYRLNGNYPLDRISMTGRSYAHADAPEGIAQFFVSEFHPERFSDAFREAVGRVTGNSADPLTPRAQTLLWQLDRDGVLTVADGAELIGLLVPCFERQHGVPRLADYETLLRESAEMAWIATEGNAFNHATDRVDDVFGLSEQQKALGRPMKDKVEVSGSGRVKQTAFRADTVRRQFIGAQGETVERDVPGSFYEFITRDRFADAPAASPRVDLGFDAGNAQGIFKMTAAV | not failed
3 | MTFVLNTFGRLQLVDGQGSLVAFPEKGLLLLVYLLTTGEGSADRTSLARFLWGDADRDVALSTLRKLISRIKARQTELGINILSSQGNMVSLDRESLSSDLLLSETDEAVASFSLLKHLVKLLNQPFLGPVHCHSREFQHWLAEREKSHIDLLANTLKAVSQRAQSRTESELLRKAAIILFRTEPKDPDTLQLLIEIFKAEEEVESLRNHFEQRRISISRGIAVRTASDGGDTKPVLPALAPSREKHATAVSLEPEDISIAIPRLVLLPPRNQSIHPQAGFLAASLVEDITIGFCAFNSLQVIAPYSAVQIGHHMETQKAFFERHHVNYILDTRISNAGDDVTLFAQLIFFDQNQIVWAERFSLDHRDLVKDRRTVSRRIALSISSEIERHEALREDLNPAAYHRYLVGRRHLARLTLPNLRRARKEMKAALSVSPDFAPALSSMARTYSKEWLLTARGDIDLLKTAETLATQATETRPDFADGYREFGVAKLLQGAFDQSAEAMEVAESLAPHYADVIADYADTLVHCSLPAIALRKIERAIELNPLSPDTYFWTAAGANYALGEFEASLDYIGQMADASLADRLAAANWAMLGHQDKARTFVRRFREVNPDFDVDKWLSAVPSKEQWHKDLYREGLKKAGF | failed
4 | MREQLRAHGIGPNDIHTLLLSHFHADHIAGLRDFPRARILASEPGWRAVRGLSGLAAVRQAFLPGLLPPDMESRLSFVEAFALQALPADLAPFSHGRDVSGCGEVFVVDLPGHAAGHLGAFVLGDAGWTLLASDAAWSEEGYREMRGPSELSFLVQHSRRSYYDTLARLHALHRGGRVDILLTHQEETPCLEHHHHHH | failed
5 | MDKHIIGENAGKLWRLLSTDVHRKWTLQEVKDATGFNDLEAASAIGWLAREDKIQFELEHHSTKDKNVFLYLMLNVYFLEHHHHHH | not failed
6 | MNGVLEQHWTGEGRRLRAAPAVLCLLLGTALAGCGDMNRFQTAAAPPTVAMPKPKPAVAQTPATEKEHERILASYGGTYDDPRLESLVTKTVDRLVAASDRPDQGYRITILNSGAVNAFALPNGQLYVTRGLLALASDTSELSSVLSHEMAHVLSKHAAMREDQARQAAIVTRVVTDMSNDPDLTALALAKTKLTMASFSRNQEFEADGIGVGISARAHFDPYGAARFLSAMERNAELKAGKTSLDPRAQDFTSSHPATPERVQNAQTIARQYVAPEGGERDRESYLAAIDNLVYGEDPERGFCPRPAFPASEARLHLPGAGQFHARQHRAGGDRRARRRLAGDALRRGAGAGRAVARRLPQFGLDGRRREGVHGRHHHQRLPGRVRHRQGRPVAVQGLCAAFRQRRLPLHLRGTAEVDRERAQCARDRQLVPSPDPRRDPGRPPAAHQGDHRAARRHRGIALPPHGRRRSPRRALPRAQRPRSQRAGEGEGSREGRGGLTLREARVIPGRLARTRDLEPRRHCRRVGKA | failed
7 | MVINSTVWQCEATGKENLTYEEAVKSERAARKKMEQFKQSLRAPVLLVVEHAQQSAVNTLNMIVAKFLRKRYFIGEEVSVQAKKNATYTVLGVKLDKNMPEPLNGIYEDTDNLVYRLRPNKGDPSAELDLPFRQLRRSRMEFNLENLSMFIKSNVSRVDGLLRPKPEA | failed
8 | MKTLYDLPIVLRNLPEDLVLEKPLPEVSVTIRAYPEILNNLTKEQISLWIDATGKAVGEHTVKIYWQLPAGIEMVSIPDVTYTLKAKEDPLEHHHHHH | failed
9 | MAACPELVDATFAILASGWHSTAVEVGGRWVFKFPRGAEAEAALLREAAVLRLVRPAVSLPVPAPQVFAGPPLFSRHEKLPGGYLLGEDYRRLDEPARQAVGDALGRFYAELHRLPPARMRAVGALPVRPWESPAAMRRRALPLLPAAWRERAERLVREYAKLPADPLGSIFGFFDGHGWNMAFDSEAGRLNGVYDFADAGIGPLHQEFIYSAFIDADLTERIVAAYERFSGRRLERRRIALLTAAHRLSELAELADEPRHLPDMLAGALDGLALAEAQGLA | failed
10 | MTKVIAITGKGGTGKTAVAALLIRSLSKKGQFILAVDADADTNLPETLGCENVKTIGDAKEFLQAEITKPRPDNPDMNKESVLQSKVYEIIEEMPGYDLLVMGRPEGSGCYCYVNNLLRGIMDKLVKNYDLVVIDAEAGLEHFSRKIIRDIDDLIVVTDASRRGFRTAERIHELVNELESNIGSIHVIANKVTDANREKLVKLAEELKLNLIGMIPLDPKIEEMDIKGIPLFEIPDDSVAAVEIENIVKKLGF | failed
11 | MLIKLRKQKQDENISFFSHFFAVFTGIFFVMTVIIIQVMHFGIYSSVDNSLKIATENVNDYVNMTLSHNNPITEAENGDASFKVKSNGQMAANTDTILYDKKHNVINNVNAFSSLYHIRPKLKDIGDIVEQEAKNIYGQTEKYRTVTVKVNNDFYPQIKFATIVINTTQLEEANTRYVTIIISVMIVFWLISVIASVYLAKWSQKPILENYEKQKSFVENASHELRTPLAVLQNRLESLFRKPEATILDSSESIASSLEEVRNMRMLTANLLNLARRDDGIKPEITEIQPRFFDDTFKNYEMIARENGKKLHIINKVNRQIKTDKTLLKQLMTILFDNAVKYTDNDGEIWLDVKTTDRSLIFSVADNGQGISDEDKKKIFDRFYRVDKARTRQKGGFGLGLSLAKQITDSLKGSIIVKDKKPQGVMFEARLLANK | failed
12 | MSDFVNGFWSYFIGIIAIGGIVWCVWLLYSQRRWLSTRPAGGVVEDTGHVWDGDLTELNNPVPRWWTWMYLLTCVFALGYLVLFPGVGSYQGTLGYTSVGEVKQKQAELAERVKPVYERFGGMTPEQLVADAPAREIGQRLFLNTCAQCHGSDAKGSTSFPNLTDGDWLYGGTPEIIAETIAKGRHGVMPPWKGVIDPRMAGDIAHYVRSLSGLAVDPVRVFRGKREFANYCVACHGVDAKGNQALGAPNLTDDVWLYGSSEASIVRTILDGRDNRMPAHEEVLTPEQIKLLSAWVWGLSNQAPAKAAEAAR | failed
13 | GMEGLVMNTRRALFADWRVREAMLLAFDFDLINRTLTGGAEPRIASYFSNSALGMEAGAPATGRERALLEPFAADLLPGTLDGYALPATHGASNRGNLRKAARLLSEAGWRIEDGMLEGPGGTPFAFEILLPQGADAMIAASIIYRQALTRLGISARITTVDPAQFKQRVDNQDFDMTSFLRSLTLSPGNEQLLYWSAEDKDLPGSRNLMGMESPAAEAVIRHMLATDDAEEFQASVRALDRVLTAGRYVIPMWYSR | failed
14 | MFTGMIRLVTLGTFAAALLSSPALAAGGGGGGGGGGSISSTDPYAGAYSDQKPQPTYPKRPGTKATQKGKKQGNQSSIGDPAFAAGYRVAYDTIYERNDYATAIAQLKSLGHDDHPNVANLIGYSYRKLGDYEQSQVWYERALRADPNHVQTWQYYGLWQLERGNREQALYHLGRIASICGTDCDEYRSLAAALDKPSGTALVY | failed
15 | MEKSKKLPFEVDRRSVYKCVQCGTCRSVCPVFDVVGWESANTRGRMLIIKSLIEGRPPSEDVLSSLASCTTCGICAAKCPAGANPPEVVEAARAQLVKCGVTTDAQLEHHHHHH | failed
16 | MTVAPTTHVPPARPAAYRELVRQRNSFTVAMTLTFLVLYFLLPLLAGYNKPLMATKVFGNVTFGYVLAFLEFLMGWVMAAIYVRKARTFDRLALEAQVPGGGA | failed
17 | MSQQVIIFDTTLRDGEQALQASLSVKEKLQIALALERMGVDVMEVGFPVSSPGDFESVQTIARQVKNSRVCALARCVEKDIDVAAESLKVAEAFRIHTFIATSPMHIATKLRSTLDEVIERAIYMVKRARNYTDDVEFSCEDAGRTPIADLARVVEAAINAGATTINIPDTVGYTMPFEFAGIISGLYERVPNIDKAIISVHTHDDLGLAVGNSLAAVHAGARQVEGAMNGIGERAGNCSLEEVIMAIKVRKDILNVHTAINHQEIWRTSQLVSQICNMPIPANKAIVGSGAFAHSSGIHQDGVLKNRENYEIMTPESIGLNQIQLNLTSRSGRAAVKHRMDEMGYKESEYNLDNLYDAFLKLADKKGQVFDYDLEALAFIGKQQEEPEHFRLDYFSVQSGSNDIATAAVKLACGEEVKAEAANGNGPVDAVYQAINRITDYNVELVKYSLTAKGHGKDALGQVDIVANYNGRRFHGVGLATDIVESSAKAMVHVLNNIWRATEVEKELQRKAQHNENNKETV | not failed
18 | MNSVRKIKCLFLIFLDILFINLGYFISLCFEYGKEMKIEYFFNIRNLIILAIFTNILIFCFFNLYKNIWHMAGISECIRCLIASSISSILLILYKFIFNMDVTIVFLINSSILICMFSLLTRMSIRIFRKIYFPYKLESNLRKNVLIVGAGHCGRIVIDEMNKNNKFNPIGIVDDDLNKKGTFLNGVKVLGNRDDIEKICKRIKVDIILIAISNLSSNDKDEIIKRCENTKIKVKIIPSIYDLIDGNVKLTNIRDIDLRDLLGRDETRLDKEEVNNYIKEKIVIVTGGGGSIGSELCRQIAVFNPKKLIILDIYENYAYELENELKRNFKNLDLEVIIASIRDKSRLKKIFDKYKPDLIFHAAAHKHVPLMENNPEEAIKNNVLGTLNVAECADEFNLEKFVFISTDKAVNPTNIMGATKRIGEMIIQAMNEVSKTDFVAVRFGNVLGSNGSVIPLFIEQIKNGGPVTLTHKDITRYFMLIPEAAQLVLQAGAYAKGGEIFVLDMGKPVKIYDLTEKLIRLSGFEPNKDIQIKIVGLRPGEKLYEELILSEEELKKTKNEKIFILSPFKFDIKEIKKKIVELLNVALNEDKKAIKEKLKEIVKNYRDLEQIDFI | failed
19 | MSPFLRIGLSNFDCGSCQSCQGEAVNPYCAVLVKEYVESENGQMYIQKKPTMYPPWDSTFDAHINKGRVMQIIVKGKNVDLISETTVELYSLAERCRKNNGKTEIWLELKPQGRMLMNARYFLEMSDTKDMNEFETEGFFALHQRRGAIKQAKVHHVKCHEFTATFFPQPTFCSVCHEFVWGLNKQGYQCRQCNAAIHKKCIDKVIAKCTGSAINSRETMFHKERFKIDMP | failed
20 | MSGEDEQQEQTIAEDLVVTKYKMGGDIANRVLRSLVEASSSGVSVLSLCEKGDAMIMEETGKIFKKEKEMKKGIAFPTSISVNNCVCHFSPLKSDQDYILKEGDLVKIDLGVHVDGFIANVAHTFVVDVAQGTQVTGRKADVIKAAHLCAEAALRLVKPGNQNTQVTEAWNKVAHSFNCTPIEGMLSHQLKQHVIDGEKTIIQNPTDQQKKDHEKAEFEVHEVYAVDVLVSSGEGKAKDAGQRTTIYKRDPSKQYGLKMKTSRAFFSEVERRFDAMPFTLRAFEDEKKARMGVVECAKHELLQPFNVLYEKEGEFVAQFKFTVLLMPNGPMRITSGPFEPDLYKSEMEVQDAELKALLQSSASRKTQKKKKKKASKTAENATSGETLEENEAGD | failed
21 | MVTGMFSLGRTYLFRVPEGEELLTYIKNFCKKEGIETAIINGIGTLKNPKIGYFLEEKKEYKVIPLKGSYELISLIGNVSLKDGEPFVHAHVSLGNEEGIVFGGHLVEGEVFVAEIFLQELKGEKIERKPTKYGLALWEELKLLEHHHHHH | not failed
